Source: paper PMC8760513, “Mechanistic details of the actinobacterial lyase-catalyzed degradation reaction of 2-hydroxyisobutyryl-CoA” (The Journal of Biological Chemistry, 2021)

B1: 2-hydroxyacyl-CoA lyase from Actinomycetospora chiangmaiensis (WT AcHACL) (enzyme)
chain: MADRQDAERSGAGPARQSVPVASLVAEFLQEHGVDRVFGLQGGHIQPIWDQLARRGVRIVDVRDEGSAVHMAHAHTELTGQTAVAMVTAGPGVTNTVTAVANASVSRIPLLVIGGCPPIPQSNMGPLQDIPHTAILEPITRLARTLRSADQVLREFDEAWARASGDRGEPGPVYLEIPTDVLRRDVPPALQMREHLRAKPKRRPQPHPDDVAAVADLIRAAEKPAIISGRGARTTDGTDLVRLLDASGAAYLDTQESRGLVPDSHPAAVGSARSAVMRDTDLLITVGRQLDYQLGMGSPAVFPHAKVVRIADTASELIDNRRGEVEILAEPGAALAAIADALKDHTPDTSWRDELKAKHRKRAEDYRQALHSTENGADGHIHPNRIFGALDALDGDVLDLGETIMIADGGDLLSFGRLGITKARRYLDAGAFGCLGVATPFAIGAALAYPDRPVVAVTGDGAFGITATEIDTAVRHDAKIVVIVSNNRAWNIERYDQAENYGLVVGTDLADSDYAGVARAFGAHGERVTDPAELEGAIRRALANAPALVDVVTTQDAASPDSGKGLGFVPDYQALTPWNDAEVARRQEGI
notes: 2-hydroxyacyl-CoA lyase (AcHACL) of Actinomycetospora chiangmaiensis DSM 45062; residues up to 590 are named in the text; Crystallised with 2-HIB-CoA and dzThDP (7PT1) or ThDP (7PT4); also called actinobacterial 2-hydroxyacyl-CoA lyase
B2: AcHACL E493Q mutant (enzyme)
chain: MADRQDAERSGAGPARQSVPVASLVAEFLQEHGVDRVFGLQGGHIQPIWDQLARRGVRIVDVRDEGSAVHMAHAHTELTGQTAVAMVTAGPGVTNTVTAVANASVSRIPLLVIGGCPPIPQSNMGPLQDIPHTAILEPITRLARTLRSADQVLREFDEAWARASGDRGEPGPVYLEIPTDVLRRDVPPALQMREHLRAKPKRRPQPHPDDVAAVADLIRAAEKPAIISGRGARTTDGTDLVRLLDASGAAYLDTQESRGLVPDSHPAAVGSARSAVMRDTDLLITVGRQLDYQLGMGSPAVFPHAKVVRIADTASELIDNRRGEVEILAEPGAALAAIADALKDHTPDTSWRDELKAKHRKRAEDYRQALHSTENGADGHIHPNRIFGALDALDGDVLDLGETIMIADGGDLLSFGRLGITKARRYLDAGAFGCLGVATPFAIGAALAYPDRPVVAVTGDGAFGITATEIDTAVRHDAKIVVIVSNNRAWNIQRYDQAENYGLVVGTDLADSDYAGVARAFGAHGERVTDPAELEGAIRRALANAPALVDVVTTQDAASPDSGKGLGFVPDYQALTPWNDAEVARRQEGI
notes: 2-hydroxyacyl-CoA lyase (AcHACL) of Actinomycetospora chiangmaiensis DSM 45062 with E493Q, made by site-directed mutation of the WT construct in pASG-IBA43; it says that the overall structure is identical to the WT (tetramer); source: same protocol as WT)
B3: AcHACL E493A mutant (enzyme)
chain: MADRQDAERSGAGPARQSVPVASLVAEFLQEHGVDRVFGLQGGHIQPIWDQLARRGVRIVDVRDEGSAVHMAHAHTELTGQTAVAMVTAGPGVTNTVTAVANASVSRIPLLVIGGCPPIPQSNMGPLQDIPHTAILEPITRLARTLRSADQVLREFDEAWARASGDRGEPGPVYLEIPTDVLRRDVPPALQMREHLRAKPKRRPQPHPDDVAAVADLIRAAEKPAIISGRGARTTDGTDLVRLLDASGAAYLDTQESRGLVPDSHPAAVGSARSAVMRDTDLLITVGRQLDYQLGMGSPAVFPHAKVVRIADTASELIDNRRGEVEILAEPGAALAAIADALKDHTPDTSWRDELKAKHRKRAEDYRQALHSTENGADGHIHPNRIFGALDALDGDVLDLGETIMIADGGDLLSFGRLGITKARRYLDAGAFGCLGVATPFAIGAALAYPDRPVVAVTGDGAFGITATEIDTAVRHDAKIVVIVSNNRAWNIARYDQAENYGLVVGTDLADSDYAGVARAFGAHGERVTDPAELEGAIRRALANAPALVDVVTTQDAASPDSGKGLGFVPDYQALTPWNDAEVARRQEGI
notes: 2-hydroxyacyl-CoA lyase (AcHACL) of Actinomycetospora chiangmaiensis DSM 45062 with E493A, made by site-directed mutation of the WT construct in pASG-IBA43; it says that the overall structure is identical to the WT (tetramer); also called alanine mutant; source: same protocol as WT)

Target: the molecule itself
Test: crystal structure; sitting drop co-crystals of 10 mg/ml protein with 1 mM 2-HIB-CoA, 5 mM ADP, 5 mM MgCl2 and 5 mM dzThDP (or ThDP for the intermediate/product state); tetramer described as a dimer of dimers

Row | Protein | stoichiometry N | binding result
1 | B1 | 4 | 
2 | B2 |  | binds
3 | B3 |  | binds
